4 substances from patent US20160030526A1 can be followed below.

Test [1] has as its target human CD25 (human IL-2 receptor) on human CD25+ T-cell lymphoma cells HUT 102/6TG (human) (UniProt P01589).
Test [2] has the same target. Description: flow cytometry on HUT 102/6TG cells.
Test [3] has the same target. Description: cell-based or functional assay.

For orientation: Kd means the constant that tells how readily two partners part at equilibrium. Read a high Kd as lower affinity.

human CD25 (human IL-2 receptor) on human CD25+ T-cell lymphoma cells HUT 102/6TG (human), sequence (P01589 22-272): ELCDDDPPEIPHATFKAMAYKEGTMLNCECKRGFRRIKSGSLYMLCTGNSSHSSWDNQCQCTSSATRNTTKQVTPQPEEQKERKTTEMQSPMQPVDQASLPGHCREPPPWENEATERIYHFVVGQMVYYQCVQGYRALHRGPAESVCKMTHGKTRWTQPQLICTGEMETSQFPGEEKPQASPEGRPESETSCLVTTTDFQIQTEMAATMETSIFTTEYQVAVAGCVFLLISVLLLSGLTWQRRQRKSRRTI

As for “bivalent human IL-2 fusion toxin (DT390-bi-hIL-2-6xHis) (other; other documents disagree on this pair)”, the Kd in test [1] was 0.21 nM. In addition, in test [2], the affinity against the monovalent isoform (DT390-hIL-2) was found to be 2 logs.
In test [1], “monovalent human IL-2 fusion toxin (DT390-hIL-2-6xHis) (other; other documents disagree on this pair)” had a Kd of 15.9 nM.
The substance “monovalent human IL-2 fusion toxin (DT390-hIL-2-6xHis)” gave an IC50 of protein synthesis inhibition (3H-leucine) in HUT 102/6TG cells in test [3] of 0.02 nM.
The substance “bivalent human IL-2 fusion toxin (DT390-bi-hIL-2-6xHis)” returned an IC50 of protein synthesis inhibition (3H-leucine) in HUT 102/6TG cells in test [3] of 0.0002 nM.
